Here are results for 1 substance from article doi:10.1101/2021.03.17.435802.

The target in one assay is ACE2(HH:NN)-Fc (human) (UniProt Q9BYF1). Briefly: SPR.
The target in assay [1] is catalytically active ACE2-Fc (human) (UniProt Q9BYF1). Briefly: SPR.

Angiotensin II (peptide): the Kd in the assay with ACE2(HH:NN)-Fc (human) was determined as 1300 nM; in assay [1], 117 nM.
